# Experimental data from US20260042847A1, “CYSTEINE ENGINEERED ANTIBODY CONSTRUCTS, CONJUGATES AND METHODS OF USE” (ZYMEWORKS INC., priority 2021, published 2026).
# B1: v17427-MCvcPABC-MMAE (conjugate, chains of the INN, looked up)
# VH: QVQLVQSGAEVKKPGASVKVSCKASGYIFTAYTMHWVRQAPGQGLEWMGWIKPNNGLANYAQKFQGRVTMTRDTSISTAYMELSRLRSDDTAVYYCARSEITTEFDYWGQGTLVTVSS
# VL: DIVMTQSPDSLAVSLGERATINCKSSESVDSYANSFLHWYQQKPGQPPKLLIYRASTRESGVPDRFSGSGSGTDFTLTISSLQAEDVAVYYCQQSKEDPLTFGGGTKVEIK
# modifications: IgG, HetFc MC-vc-PABC-MMAE
# System: mid c-Met expressing colorectal cancer xenograft model HT-29
# Test: In vivo anti-tumor activity, HT-29 xenograft
# Set-up: species or system balb/c nude mice
# Conditions: single IV dose, toxin-matched 6 (DAR1), 3 (DAR2), 2 (DAR3), 1.5 (DAR4) mg/kg, FIG. 7A
# Description: For the HT-29 model, tumor cell suspensions (3×10^6 cells in 0.1 ml PBS) were implanted subcutaneously into balb/c nude mice. When mean tumor volume reached ˜160 mm3, the animals were randomly assigned to groups (n=8 per group) and treated with a single IV dose of test articles as shown in Table 14.1. Dose levels of ADCs at different DARs were molar matched to toxin. Tumor volume and body weight were measured twice weekly with a study duration of 32 days.
molecule,measurement,value
B1,tumor growth inhibition compared to vehicle,did not significantly inhibit tumor growth
